Data from patent US20260184777A1 (BEIJING SUNGEN BIOMEDICAL TECHNOLOGY, published 2026).
Positions count from the first letter of the chain named.

T1: human S100A8/A9 heterodimeric antigen, His-tagged (hS100A8/A9-His) (human, UniProt P05109 1-93; P06702 1-114)
T1 sequence 1: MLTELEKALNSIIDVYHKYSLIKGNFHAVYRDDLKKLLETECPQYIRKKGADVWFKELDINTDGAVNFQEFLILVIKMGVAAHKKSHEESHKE
T1 sequence 2: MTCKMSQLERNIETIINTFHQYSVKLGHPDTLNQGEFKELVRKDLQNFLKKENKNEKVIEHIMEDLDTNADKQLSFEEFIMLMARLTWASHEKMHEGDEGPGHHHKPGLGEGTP

B1: CM-2 (antibody, human IgG4 S228P, lambda, V domains shown)
VH: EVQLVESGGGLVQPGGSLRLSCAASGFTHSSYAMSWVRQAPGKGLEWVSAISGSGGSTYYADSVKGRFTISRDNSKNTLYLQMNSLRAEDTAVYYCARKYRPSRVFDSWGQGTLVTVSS
VL: SYELTQPPSVSVAPGQTARITCSGDALGDKYASWYQQKPGQAPVLVIYEDSKRPSGIPERFSGSNSGNTATLTISGTQAEDEADYYCQSNDADSVWVFGGGTKLTVLG
B2: CM-4 (antibody, human IgG4 S228P, lambda, V domains shown)
VH: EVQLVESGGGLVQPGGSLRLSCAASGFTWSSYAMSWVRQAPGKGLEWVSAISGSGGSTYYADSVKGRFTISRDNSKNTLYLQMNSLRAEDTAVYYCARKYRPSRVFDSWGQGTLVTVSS
VL: B1 VL
B3: CM-17 (antibody, human IgG4 S228P, lambda, V domains shown)
VH: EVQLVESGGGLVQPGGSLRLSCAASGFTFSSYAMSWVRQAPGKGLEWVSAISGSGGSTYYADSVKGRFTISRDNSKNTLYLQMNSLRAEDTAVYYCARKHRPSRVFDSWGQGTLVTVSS
VL: B1 VL
B4: CM-16 (antibody, human IgG4 S228P, lambda, V domains shown)
VH: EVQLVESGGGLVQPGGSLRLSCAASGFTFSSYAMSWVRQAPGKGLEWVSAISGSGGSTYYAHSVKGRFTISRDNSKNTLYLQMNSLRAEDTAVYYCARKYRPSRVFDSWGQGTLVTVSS
VL: B1 VL
B5: CM-12 (antibody, human IgG4 S228P, lambda, V domains shown)
VH: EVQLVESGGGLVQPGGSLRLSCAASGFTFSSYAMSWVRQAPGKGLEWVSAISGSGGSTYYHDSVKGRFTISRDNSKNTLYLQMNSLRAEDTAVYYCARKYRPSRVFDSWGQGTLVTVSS
VL: B1 VL
B6: CM-25 (antibody, human IgG4 S228P, lambda, V domains shown)
VH: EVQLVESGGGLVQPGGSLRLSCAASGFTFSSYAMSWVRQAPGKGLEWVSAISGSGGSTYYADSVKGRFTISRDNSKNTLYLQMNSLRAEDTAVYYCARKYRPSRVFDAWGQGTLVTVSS
VL: B1 VL
B7: CM-7 (antibody, human IgG4 S228P, lambda, V domains shown)
VH: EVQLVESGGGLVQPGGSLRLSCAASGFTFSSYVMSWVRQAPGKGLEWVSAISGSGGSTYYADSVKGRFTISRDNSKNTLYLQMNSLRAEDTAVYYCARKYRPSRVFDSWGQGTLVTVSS
VL: B1 VL
B8: CM-19 (antibody, human IgG4 S228P, lambda, V domains shown)
VH: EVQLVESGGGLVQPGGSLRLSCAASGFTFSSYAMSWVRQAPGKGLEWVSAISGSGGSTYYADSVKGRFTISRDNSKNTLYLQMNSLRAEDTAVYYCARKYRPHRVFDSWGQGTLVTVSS
VL: B1 VL
B9: CM-22 (antibody, human IgG4 S228P, lambda, V domains shown)
VH: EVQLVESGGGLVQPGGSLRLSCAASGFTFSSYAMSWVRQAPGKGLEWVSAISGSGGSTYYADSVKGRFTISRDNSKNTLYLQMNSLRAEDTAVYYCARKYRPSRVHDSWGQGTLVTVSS
VL: B1 VL
B10: CM-23 (antibody, human IgG4 S228P, lambda, V domains shown)
VH: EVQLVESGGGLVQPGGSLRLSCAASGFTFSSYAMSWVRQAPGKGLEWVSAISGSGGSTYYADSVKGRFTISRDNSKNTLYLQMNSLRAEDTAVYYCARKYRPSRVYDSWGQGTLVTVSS
VL: B1 VL
B11: CM-10 (antibody, human IgG4 S228P, lambda, V domains shown)
VH: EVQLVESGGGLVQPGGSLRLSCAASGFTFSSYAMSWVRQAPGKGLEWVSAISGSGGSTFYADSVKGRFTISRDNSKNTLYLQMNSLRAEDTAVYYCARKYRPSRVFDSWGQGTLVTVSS
VL: B1 VL
B12: CM-13 (antibody, human IgG4 S228P, lambda, V domains shown)
VH: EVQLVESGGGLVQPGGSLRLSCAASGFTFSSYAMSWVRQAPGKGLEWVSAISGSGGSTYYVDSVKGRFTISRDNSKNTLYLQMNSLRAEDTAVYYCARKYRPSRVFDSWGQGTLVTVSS
VL: B1 VL
B13: CM-21 (antibody, human IgG4 S228P, lambda, V domains shown)
VH: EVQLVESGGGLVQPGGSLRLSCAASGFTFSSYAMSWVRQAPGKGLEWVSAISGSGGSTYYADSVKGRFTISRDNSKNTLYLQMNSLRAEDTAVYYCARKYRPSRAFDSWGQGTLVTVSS
VL: B1 VL
B14: CM-15 (antibody, human IgG4 S228P, lambda, V domains shown)
VH: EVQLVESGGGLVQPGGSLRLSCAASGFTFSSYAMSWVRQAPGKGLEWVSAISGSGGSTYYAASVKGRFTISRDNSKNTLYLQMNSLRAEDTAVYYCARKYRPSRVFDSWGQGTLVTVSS
VL: B1 VL
B15: CM-3 (antibody, human IgG4 S228P, lambda, V domains shown)
VH: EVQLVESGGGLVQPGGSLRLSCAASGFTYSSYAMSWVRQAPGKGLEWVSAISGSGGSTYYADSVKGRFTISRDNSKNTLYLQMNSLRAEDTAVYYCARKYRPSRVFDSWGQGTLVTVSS
VL: B1 VL
B16: CM-18 (antibody, human IgG4 S228P, lambda, V domains shown)
VH: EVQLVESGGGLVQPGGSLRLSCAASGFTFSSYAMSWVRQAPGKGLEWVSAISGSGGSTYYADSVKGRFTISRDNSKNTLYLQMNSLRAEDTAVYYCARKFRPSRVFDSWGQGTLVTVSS
VL: B1 VL
B17: CM-20 (antibody, human IgG4 S228P, lambda, V domains shown)
VH: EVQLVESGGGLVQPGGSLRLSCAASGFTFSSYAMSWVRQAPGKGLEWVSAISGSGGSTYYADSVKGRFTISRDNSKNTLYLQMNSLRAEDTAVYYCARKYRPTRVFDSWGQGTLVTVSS
VL: B1 VL
B18: CM-14 (antibody, human IgG4 S228P, lambda, V domains shown)
VH: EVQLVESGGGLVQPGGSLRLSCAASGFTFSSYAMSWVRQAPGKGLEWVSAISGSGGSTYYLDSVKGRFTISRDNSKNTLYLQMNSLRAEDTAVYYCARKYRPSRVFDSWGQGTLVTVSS
VL: B1 VL
B19: CM-24 (antibody, human IgG4 S228P, lambda, V domains shown)
VH: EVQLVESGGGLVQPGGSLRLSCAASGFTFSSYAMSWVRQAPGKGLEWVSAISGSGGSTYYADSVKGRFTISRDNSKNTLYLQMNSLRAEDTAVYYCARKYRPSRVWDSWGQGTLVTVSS
VL: B1 VL
B20: CM-8 (antibody, human IgG4 S228P, lambda, V domains shown)
VH: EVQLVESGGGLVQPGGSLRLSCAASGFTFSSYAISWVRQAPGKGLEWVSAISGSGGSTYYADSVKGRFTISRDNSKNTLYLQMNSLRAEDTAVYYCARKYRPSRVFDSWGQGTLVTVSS
VL: B1 VL
B21: CM-5 (antibody, human IgG4 S228P, lambda, V domains shown)
VH: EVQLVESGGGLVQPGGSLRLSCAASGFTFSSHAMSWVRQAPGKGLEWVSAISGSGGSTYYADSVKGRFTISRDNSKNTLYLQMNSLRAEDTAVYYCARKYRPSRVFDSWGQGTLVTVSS
VL: B1 VL
B22: CM-9 (antibody, human IgG4 S228P, lambda, V domains shown)
VH: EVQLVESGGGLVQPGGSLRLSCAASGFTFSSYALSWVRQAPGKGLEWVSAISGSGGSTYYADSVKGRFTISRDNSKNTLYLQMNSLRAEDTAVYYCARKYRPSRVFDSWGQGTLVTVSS
VL: B1 VL
B23: CM-11 (antibody, human IgG4 S228P, lambda, V domains shown)
VH: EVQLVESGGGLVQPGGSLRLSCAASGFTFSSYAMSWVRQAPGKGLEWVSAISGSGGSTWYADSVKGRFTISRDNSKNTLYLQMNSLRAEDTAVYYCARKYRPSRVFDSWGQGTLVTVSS
VL: B1 VL
B24: CM-6 (antibody, human IgG4 S228P, lambda, V domains shown)
VH: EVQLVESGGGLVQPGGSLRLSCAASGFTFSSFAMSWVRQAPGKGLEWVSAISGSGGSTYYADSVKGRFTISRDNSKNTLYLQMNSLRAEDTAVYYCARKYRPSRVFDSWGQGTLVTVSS
VL: B1 VL
B25: CM-26 (antibody, human IgG4 S228P, lambda, V domains shown)
VH: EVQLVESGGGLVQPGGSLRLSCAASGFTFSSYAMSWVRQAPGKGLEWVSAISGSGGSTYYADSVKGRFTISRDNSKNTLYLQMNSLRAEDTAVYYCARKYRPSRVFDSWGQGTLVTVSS
VL: B1 VL with Y31F
B26: CM-115 (antibody, human IgG4 S228P, lambda, V domains shown)
VH: EVQLVESGGGLVQPGGSLRLSCAASGFTWSDYAMSWVRQAPGKGLEWVSAISGSGGSTYYAASVKGRFTISRDNSKNTLYLQMNSLRAEDTAVYYCARKYRPSRVFDAWGQGTLVTVSS
VL: B1 VL with S51A, S94A, V95W
B27: CM-102 (antibody, human IgG4 S228P, lambda, V domains shown)
VH: B26 VH with W29F, T58H
VL: B1 VL with S51A, S94A, V95W
B28: CM-100 (antibody, human IgG4 S228P, lambda, V domains shown)
VH: B26 VH with W29F, T58H
VL: B1 VL with G28H, S51A, S94A
B29: CM-104 (antibody, human IgG4 S228P, lambda, V domains shown)
VH: B26 VH with W29F, T58H
VL: B1 VL with S51A, S94A, V95Y
B30: CM-111 (antibody, human IgG4 S228P, lambda, V domains shown)
VH: B26 VH with W29F, D31S, S54H
VL: B1 VL with S33A, S51A, S94A
B31: CM-109 (antibody, human IgG4 S228P, lambda, V domains shown)
VH: B26 VH with W29F, T58H
VL: B1 VL with G28H, D50H, S51H, S94A
B32: CM-116 (antibody, human IgG4 S228P, lambda, V domains shown)
VH: B26 VH with W29F, A108F
VL: B1 VL with S51A, S94A, V95W
B33: CM-106 (antibody, human IgG4 S228P, lambda, V domains shown)
VH: B26 VH with W29F, T58H
VL: B1 VL with G28H, S51A, S94A, V95Y
B34: CM-107 (antibody, human IgG4 S228P, lambda, V domains shown)
VH: B26 VH with W29F, T58H
VL: B1 VL with D50H, S51H, S94A
B35: CM-101 (antibody, human IgG4 S228P, lambda, V domains shown)
VH: B26 VH with W29F, T58H
VL: B1 VL with S33A, S51A, S94A
B36: CM-112 (antibody, human IgG4 S228P, lambda, V domains shown)
VH: B26 VH with W29F, D31S, T58H
VL: B1 VL with G28H, S51A, S94A
B37: CM-103 (antibody, human IgG4 S228P, lambda, V domains shown)
VH: B26 VH with W29F, T58H
VL: B1 VL with S51A, S94A, V95R
B38: CM-110 (antibody, human IgG4 S228P, lambda, V domains shown)
VH: B26 VH with W29F, D31S, S35A
VL: B1 VL with G28H, S51A, S94A
B39: CM-105 (antibody, human IgG4 S228P, lambda, V domains shown)
VH: B26 VH with W29F, T58H
VL: B1 VL with G28H, S33A, S51A, S94A
B40: CM-108 (antibody, human IgG4 S228P, lambda, V domains shown)
VH: B26 VH with W29F, T58H
VL: B1 VL with S51A, S55D, S94A, V95Y
B41: CM-114 (antibody, human IgG4 S228P, lambda, V domains shown)
VH: B26 VH with W29F, D31S, T58H
VL: B1 VL with D50H, S51H, S94A
B42: CM-113 (antibody, human IgG4 S228P, lambda, V domains shown)
VH: B26 VH with W29F, D31S, T58H
VL: B1 VL with G28H, S33A, S51A, S94A
B43: CM-119 (antibody, human IgG4 S228P, lambda, V domains shown)
VH: B26 VH with W29F, A108Y
VL: B1 VL with S51A, S94A, V95W
B44: CM-118 (antibody, human IgG4 S228P, lambda, V domains shown)
VH: B26 VH with W29F, A108H
VL: B1 VL with S51A, S94A, V95W
B45: CM-117 (antibody, human IgG4 S228P, lambda, V domains shown)
VH: B26 VH with W29F, A108C
VL: B1 VL with S51A, S94A, V95W

target: T1, human S100A8/A9 heterodimeric antigen, …; test: cell-based or functional assay

Row | Binder | IC50, inhibition of IL-6 release from hS100A8/A9-activated human PBMCs
1 | B1 | 0.199 µg/mL
2 | B2 | 0.04 µg/mL
3 | B3 | 0.32 µg/mL
4 | B4 | 0.457 µg/mL
5 | B5 | 0.047 µg/mL
6 | B6 | 0.471 µg/mL
7 | B7 | 0.12 µg/mL
8 | B8 | 0.619 µg/mL
9 | B9 | 0.162 µg/mL
10 | B10 | 0.024 µg/mL
11 | B11 | 0.438 µg/mL
12 | B12 | 0.047 µg/mL
13 | B13 | 0.01 µg/mL
14 | B14 | 0.477 µg/mL
15 | B15 | 0.029 µg/mL
16 | B16 | 0.109 µg/mL
17 | B17 | 0.43 µg/mL
18 | B18 | 2.79 µg/mL
19 | B19 | 0.67 µg/mL
20 | B20 | 0.458 µg/mL
21 | B21 | 0.436 µg/mL
22 | B22 | 1.56 µg/mL
23 | B23 | 0.038 µg/mL
24 | B24 | 0.488 µg/mL
25 | B25 | 0.168 µg/mL

target: T1, human S100A8/A9 heterodimeric antigen, …; test: cell-based or functional assay; remark: another data set of the same source

Row | Binder | Relative IC50 (IC50 relative to CM-1), IL-6 release from hS100A8/A9-activated human PBMCs
26 | B26 | 1.34 relative to CM-1
27 | B27 | 0.464 relative to CM-1
28 | B28 | 1.12 relative to CM-1
29 | B29 | 1.76 relative to CM-1
30 | B30 | 1.08 relative to CM-1
31 | B31 | 0.475 relative to CM-1
32 | B32 | 0.986 relative to CM-1
33 | B33 | 0.352 relative to CM-1
34 | B34 | 0.386 relative to CM-1
35 | B35 | 0.683 relative to CM-1
36 | B36 | 0.738 relative to CM-1
37 | B37 | 0.687 relative to CM-1
38 | B38 | 0.878 relative to CM-1
39 | B39 | 1.5 relative to CM-1
40 | B40 | 1.5 relative to CM-1
41 | B41 | 0.899 relative to CM-1
42 | B42 | 0.442 relative to CM-1
43 | B43 | 1.37 relative to CM-1
44 | B44 | 1.63 relative to CM-1
45 | B45 | 0.367 relative to CM-1
